T1: 人CD20蛋白 (human CD20) (human, UniProt P11836 1-297, limits assumed)
T1 construct: its title names human CD20; also called 抗原
T1 sequence (looked up): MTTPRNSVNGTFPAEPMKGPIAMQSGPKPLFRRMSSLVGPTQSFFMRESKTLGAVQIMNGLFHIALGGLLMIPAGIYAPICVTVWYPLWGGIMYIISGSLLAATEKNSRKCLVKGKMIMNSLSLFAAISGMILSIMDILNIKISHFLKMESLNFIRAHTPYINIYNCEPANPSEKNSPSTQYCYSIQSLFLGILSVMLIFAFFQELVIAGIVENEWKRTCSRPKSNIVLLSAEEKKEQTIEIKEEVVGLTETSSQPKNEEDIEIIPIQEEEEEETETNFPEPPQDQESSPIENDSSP

B1: Rituximab (antibody, V domains shown)
VH: QVQLQQPGAELVKPGASVKMSCKASGYTFTSYNMHWVKQTPGRGLEWIGAIYPGNGDTSYNQKFKGKATLTADKSSSTAYMQLSSLTSEDSAVYYCARSTYYGGDWYFNVWGAGTTVTVSA
VL: QIVLSQSPAILSASPGEKVTMTCRASSSVSYIHWFQQKPGSSPKPWIYATSNLASGVPVRFSGSGSGTSYSLTISRVEAEDAATYYCQQWTSNPPTFGGGTKLEIK
B2: hG7B2-IgG1 (antibody, V domains shown)
VH: QVQLVQSGGEVKKPGASVKVSCKTSGYRFTSGKNAVWVRQAPGQGLEWMGGIATGKFNLSVDLQGRLTLTTDTSTSTAYMELGSLRPDDTAVYYCTRDIRLYAGDYWGQGTLVTVSS
VL: DIVLTQPASVSGSPGQSVTISCSAIDGNCFNKVSWYQQHPGKAPKLMIYDASKRCTGIPERFSGSNSGNTATLTISRVEAGDEADYYCQAASKDAPITTFGRGTKLTVL

Biological target: T1, 人CD20蛋白 (human CD20)
Test: SPR (CM5 chip), antibody captured by anti-human capture antibody, antigen as analyte

Binder	Kd [nM]	koff [s⁻¹]	kon [M⁻¹ s⁻¹]
B1	5.46	0.000345	63100
B2	0.215	5.31e-05	246000

Reference: patent publication CN112521508A (BEIJING GUANGWEI BIOTECHNOLOGY CO LTD, dated 2021)
